Experiments:
[1] = tested on: MiniChl1V2 (Chaetomium thermophilum); assay: fluorescence anisotropy; conditions: 50 mM HEPES pH 8.0, 50 mM NaCl, 0.5 mM TCEP, 25 C; 10 nM FAM-DNA; quadratic fit
[2] = tested on: Chl1 full-length (Chaetomium thermophilum); assay: fluorescence anisotropy; conditions: no plateau reached, low affinity; 50 mM HEPES pH 8.0, 50 mM NaCl, 0.5 mM TCEP, 25 C; 10 nM FAM-DNA; quadratic fit

22-mer ssDNA was tested, and the Kd [1] was 0.038 µM and the Kd [2] was > 1 µM.
